Values quoted from earlier work in publication PMC4034509, “Overcoming co-product inhibition in the nicotinamide independent asymmetric bioreduction of activated C=C-bonds using flavin-dependent ene-reductases” (Biotechnology and Bioengineering, 2013).

Molecular target: Tyr206 (UniProt position 206, …)
Details: Not stated. The value is discussed in the context of the phenol/phenolate charge-transfer complex with the oxidised flavin in the EBP1 active site.

B1: Estrogen binding protein EBP1 (old yellow enzyme homologue) (Candida albicans) (protein)
chain: MTIESTNSFVVPSDTKLIDVTPLGSTKLFQPIKVGNNVLPQRIAYVPTTRFRASKDHIPSDLQLNYYNARSQYPGTLIITEATFASERGGIDLHVPGIYNDAQAKSWKKINEAIHGNGSFSSVQLWYLGRVANAKDLKDSGLPLIAPSAVYWDENSEKLAKEAGNELRALTEEEIDHIVEVEYPNAAKHALEAGFDYVEIHGAHGYLLDQFLNLASNKRTDKYGCGSIENRARLLLRVVDKLIEVVGANRLALRLSPWASFQGMEIEGEEIHSYILQQLQQRADNGQQLAYISLVEPRVTGIYDVSLKDQQGRSNEFAYKIWKGNFIRAGNYTYDAPEFKTLINDLKNDRSIIGFSRFFTSNPDLVEKLKLGKPLNYYNREEFYKYYNYGYNSYDESEKQVIGKPLA
  pKa: 9.4
